Data on three molecules can be found in publication PMC12276895 (2025).

For the experiment, the target named is prefusion biotinylated MERS-CoV EMC/2012 S ectodomain trimer (MERS-CoV EMC/2012, UniProt K9N5Q8 18-1296). Briefly: SPR. Background: In SPR one partner is held on a chip, and binding of the other changes the refractive index at the surface.

B1: nTrimer1 homotrimeric miniprotein (cb3-GSG-Trimer1) (designed binder)
chain: SPVKRFVREVLEEAEEAYEKGDRRQFEELLWLAEWAARDANDEELEEEIREFEKEVKGSGSEALEELEKALRELKKSTDELERSTEELEKNPSEDALVENNRLIVENNKIIVEVLRIIAKVLK
B1: the Kd – broadly, the equilibrium constant for the complex coming apart – came out at 0.021 nM.

B2: nTrimer2 homotrimeric miniprotein (designed binder)
chain: SPVKRFVREVLEEAEEAYEKGDRRQFEELLWLAEWAARDANDEELEEEIREFEKEVKGSGKRIDEIESKLKHLEEFTTHLIKLMETMLELLKLVSDGKSDSEEYKELLEKAEEYLKQATEAAKKI
The molecule B2 gave a dissociation constant (Kd) of 0.027 nM.

B3: nTrimer5 homotrimeric miniprotein (designed binder)
chain: SPVKRFVREVLEEAEEAYEKGDRRQFEELLWLAEWAARDANDEELEEEIREFEKEVKGSGMTRLEQLLAQGVDPFEVLREKIEKLKEIWKKYEEAKGEEKERYRDELLKLMMEVLELMVELLSRR
Molecule B3 had a Kd of 0.032 nM.
